Measurements as given in paper PMC9278117.

How the values were obtained:
CB6 monoclonal antibody = assay: BLI
4A8 monoclonal antibody = assay: BLI

SARS-CoV-2 S1-SpyTag monomer (from UniProt P0DTC2 16-685) (domain or fragment)
Kd (CB6 monoclonal antibody): 0.00548 µM | Kd (4A8 monoclonal antibody): 0.0341 µM
